# Experimental data reported in patent publication US20090214627.
# T1: Peptide 2: Arg-Thr-Glu-Ser-Ile-Thr-Ala-Thr-Ser-Pro-Ala-Ser-Met-Val-Gly-Gly-Lys-Pro (second IRS-1 peptide)
# T1 chain: RTESITATSPASMVGGKP
# T2: Peptide 1: Lys-Lys-His-Ala-Asp-Asp-Gly-Ala-Met-Pro-Met-Ser-Pro-Gly-Val-Ala (mutant IRS-1 peptide)
# T2 chain: KKHADDGAMPMSPGVA
# B1: GST-hBVR fusion protein, wild type (human biliverdin reductase fused to glutathione-S-transferase) (protein)
# chain: MNAEPERKFGVVVVGVGRAGSVRMRDLRNPHPSSAFLNLIGFVSRRELGSIDGVQQISLEDALSSQEVEVAYICSESSSHEDYIRQFLNAGKHVLVEYPMTLSLAAAQELWELAEQKGKVLHEEHVELLMEEFAFLKKEVVGKDLLKGSLLFTSDPLEEDRFGFPAFSGISRLTWLVSLFGELSLVSATLEERKEDQYMKMTVCLETEKKSPLSWIEEKGPGLKRNRYLSFHFKSGSLENVPNVGVNKNIFLKDQNIFVQKLLGQFSEKELAAEKKRILHCLGLAEEIQKYCCSRK
# What was measured:
# [1] = test system: insulin receptor substrate-1 (IRS-1) peptide Y^608
# [2] = molecular target: T1, Peptide 2: …
# [3] = molecular target: insulin receptor substrate-1 (IRS-1) peptide Y^608; remark: listed apart in the source
# [4] = molecular target: T2, Peptide 1: …
Molecule,IRS phosphorylation by BVR (32P kinase assay) [1],peptide phosphorylation by BVR (32P retained on P81 filters) [2],IRS-1 phosphorylation by BVR (32P kinase assay) [3],peptide phosphorylation by BVR (32P retained on P81 filters) [3],phosphorylation of BVR by IRK in the presence of increasing molar ratio of IRS/BVR [3],peptide phosphorylation by BVR (32P retained on P81 filters) [4]
"GST-hBVR G17 mutant (GVGRA to GVARA), ATP binding domain mutant","G^17 mutation, for the most part, prevented IRS phosphorylation by BVR",–,–,–,–,–
B1,–,this peptide is also a suitable substrate for BVR (1198±230 cpm),IRS-1 is a substrate for BVR,both the mutated and unmutated peptides were phosphorylated to about the same extent (1049±78 cpm and 1081±183 cpm respectively),"in the presence of increasing amounts of IRS, there was an increase in phosphorylation of BVR by IR up to equimolar ratio of IRS/BVR",both the mutated and unmutated peptides were phosphorylated to about the same extent (1049±78 cpm and 1081±183 cpm respectively)
